From US5179196A, “Purification of proteins employing CTAP-III fusions” (SRI International, priority 1989, dated 1993)
Where two headings read alike, the source gives them in different places.

B1: CTAP-III(Leu21): analog of CTAP-III in which the methionine at position 21 is replaced with leucine (protein, UniProt P02775 44-128, looked up, variant M21L)
Connective tissue-activating …: NLAKGKEESLDSDLYAELRCLCIKTTSGIHPKNIQSLEVIGKGTHCNQVEVIATLKDGRKICLDPDAPRIKKIVQKKLAGDESAD
modifications: Connective tissue-activating peptide III

Legend:
[1] = biological target: T1, thrombin (Homo sapiens, UniProt P00734); test: Specific activity of recombinant hirudin (antithrombin activity), applicant's hirudin; format: biochemical
Source text: There are a number of activity assays developed to determine the quality of hirudin preparations and for use in quantitating hirudin in various biochemical and pharmacological experiments. Two of these methods have been refined herein and may be used routinely and reproducibly. The first, a chromogenic substrate assay measures the inhibition by hirudin of thrombin's ability to hydrolyze small synthetic peptide substrates. The second, a fibrin-clotting assay, measures the kinetics of clot formation, using either human plasma or purified fibrinogen as the thrombin substrate.
In the chromogenic assay, antithrombin activity is achieved by measuring the inhibition of release of p-nitroaniline from the chromogenic substrate H-D-phenylalanyl-L-pipecolyl-L-arginine-p-nitroanilide dihydrochloride (S-2238, supplied by Kabivitrum) by thrombin in the presence of hirudin. Thrombin concentration is 2 nM (typically 0.12 NIH units/ml), and hirudin can be assayed reproducibly at an approximate concentration range of 0.3 to 1 nM, using 296 uM substrate in 50 mM Tris buffer, 100 mM NaCl, pH 7.8, and 0.1% polyethylene glycol-6000 (PEG). PEG is included to inhibit binding of thrombin to the plastic surface of the microplate or cuvette; for the same reason, reaction vessels are pretreated with 1% PEG-20,000 prior to assay.
Hirudin inhibits the thrombin-mediated conversion of fibrinogen into a fibrin clot. […]

[2] = Isoelectric point (pI); format: physicochemical
[3] = biological target: T1, thrombin; details: E. coli, cited from earlier work
[4] = tested on: B16/F10 cells (murine melanoma); test: Cell adhesion assay, tumor cells binding to peptide-coated wells; format: cell-based; details: summary of Table 2
Source text: One of the assays used to measure the activity of the laminin B1 peptide measures the binding of tumor cells containing the laminin receptor to the peptide immobilized on the surface of a culture tissue (Graf et al (1987) Cell 48:989-996). This assay is a convenient and sensitive method for routine measurement of laminin cell receptor binding and therefore a good indicator of laminin antagonist activity.
The laminin B1 -40 peptide, along with the previously described YIGSR and CDPGYIGSR peptides, were dissolved in phosphate-buffered saline (PBS) and were coated onto Falcon #3915 polystyrene 96-well plates at 37° C. for 60 min. The peptide solutions were removed, and the wells were washed twice with PBS. Non-specific cell binding was prevented by adding 200 ul 0.1% bovine serum albumin (BSA) (Sigma #4965) in PBS to the wells and incubating for 60 min at 37° C. The BSA was removed by washing twice with PBS. […] The optical density of the solutions was read on a Molecular Devices Corporation plate reader at a wavelength between 590 nm and 405 nm. Extrapolation of optical density to number of cells bound was done by comparison of readings to a standard curve obtained by incubating various numbers of cells in microtiter plate wells for 5 h (to allow firm attachment but no significant dividing), and washing and staining as described above.

Molecule | Sp. Act. ([1]; AT (antithrombin units), E. coli, pNP6ΔRI-CRM/HIR, intracellular (Example 4)) | specific activity ([1]; purified hirudin HV-1 standard) | pI (isoelectric point) [2] | Sp. Act. ([3]; pMF1, lacUV5/tac, intracellular) | Sp. Act. ([3]; IU, international units, pHIR20 lam-PL, intracellular) | Sp. Act. ([3]; IU, international units, pHIR21 tac, periplasmic secretion) | binding of metastatic tumor cells compared with YIGSR or CDPGYIGSR (in words) [4]
HV-1: hirudin variant 1, thrombin inhibitor of Hirudo medicinalis, produced from a synthetic DNA | 11,300 U/mg | greater than 10 antithrombin units per ug | 3.8 | 8,500 U/mg | 500 U/mg | 560 U/mg | 
Pro1 -Cys Pro Asp Gly Pro Asp Ser Gly Arg Gln Phe Ala Arg Ser Cys Tyr Gln Asp Pro Val Thr Leu Gln Leu Ala X Val Cys Asp Pro Gly Tyr Ile Gly Ser Arg Cys Asp Asp-Y [LamB1 -40] |  |  | 3.65 |  |  |  | binds metastatic tumor cells more effectively
B1 |  |  | approximately 7.8 |  |  |  | 
